These results are taken from patent publication US20240132578A1.

What all share (experiment): cell-based or functional assay
Test [1] addresses HIV-1 Env of isolate MGRM-G-016 (subtype G) (HIV-1).
Test [2] deals with HIV-1 Env of isolate MGRM-C-017 (subtype C), on pseudovirus (HIV-1).
In test [3] the target is HIV-1 Env of isolate MGRM-G-013 (subtype G) (HIV-1).
For test [4], the target named is HIV-1 Env of isolate 92UG114 (HIV-1).
The target in test [5] is HIV-1 Env of isolate MGRM-G-019 (subtype G) (HIV-1).
For test [6], the target named is aMLV envelope (negative control pseudovirus) (aMLV).
The target in test [7] is HIV-1 Env of pseudovirus isolate 6535.3 (clade B) (HIV-1).
In test [8] the target is HIV-1 Env of pseudovirus isolate APV-13 (clade B) (HIV-1).
Test [9] deals with HIV-1 Env of isolate MGRM-AG-008 (subtype AG) (HIV-1).
The target in test [10] is HIV-1 Env of isolate MGRM-D-026 (HIV-1).
Test [11] concerns the target HIV-1 Env of isolate MGRM-F1-006 (HIV-1).
Test [12] deals with HIV-1 Env of pseudovirus isolate MGRM-C-023 (clade C) (HIV-1).
The target in test [13] is HIV-1 Env of isolate MGRM-A-009 (subtype A) (HIV-1).
The target of test [14] is HIV-1 Env of pseudovirus MGRM-D-021 (HIV-1).
In test [15] the target is HIV-1 Env of pseudovirus MGRM-D-020 (HIV-1).
For test [16], the target named is HIV-1 Env of pseudovirus MGRM-F1-014 (HIV-1).
Test [17] deals with HIV-1 Env of isolate MGRM-F1-022 (pseudovirus) (HIV-1).
Test [18] addresses HIV-1 envelope glycoprotein (Env) of isolate MG RM-A-003, subtype A (HIV-1).
The target in test [19] is HIV-1 envelope glycoprotein (Env) of isolate MG RM-A-010, subtype A (HIV-1).
The target of test [20] is HIV-1 Env of isolate MGRM-AG-008 (pseudovirus) (HIV-1).
The target in test [21] is HIV-1 JR-CSF Env F468A (HIV-1 (isolate JR-CSF)) (UniProt P20871).
In test [22] the target is HIV-1 Env of isolate PVO.4 (Acute), clade B (HIV-1).
Test [23] concerns the target HIV-1 Env of isolate SC422661.8 (Acute), clade B (HIV-1).
The target of test [24] is HIV-1 Env of isolate MGRM-A-012 (clade A pseudovirus) (HIV-1).
Test [25] concerns the target HIV-1 Env of pseudovirus MGRM-F1-022 (clade F) (HIV-1).
For test [26], the target named is HIV-1 Env of isolate MGRM-A-014 (clade A pseudovirus) (HIV-1).
Test [27] has as its target HIV-1 envelope glycoprotein (Env) of isolate LAVIC_18 (HIV-1).
Test [28] has as its target HIV-1 Env of pseudovirus MGRM-G-024 (HIV-1).
The target of test [29] is HIV-1 Env of pseudovirus MGRM-G-016 (HIV-1).
The target in test [30] is HIV-1 MGRM-AG-003 Env (pseudovirus) (HIV-1).
For test [31], the target named is HIV-1 Env of isolate MGRM-D-013 (clade D pseudovirus) (HIV-1).
The target in test [32] is HIV-1 MGRM-AG-012 Env (pseudovirus) (HIV-1).
In test [33] the target is HIV-1 Env of isolate MGRM-D-016 (clade D pseudovirus) (HIV-1).
Test [34] has as its target HIV-1 Env of isolate 93RW029 (clade A pseudovirus) (HIV-1).
Test [35] deals with HIV-1 envelope glycoprotein (Env) of isolate MGRM-C-019 (HIV-1).

Chain of PGT-144 (4970_K22) (antibody) (VH): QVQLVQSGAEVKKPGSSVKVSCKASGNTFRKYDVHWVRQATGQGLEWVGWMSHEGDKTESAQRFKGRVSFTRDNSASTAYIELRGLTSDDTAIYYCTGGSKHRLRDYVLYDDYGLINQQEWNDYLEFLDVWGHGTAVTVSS
Chain of PGT-144 (4970_K22) (antibody) (VL): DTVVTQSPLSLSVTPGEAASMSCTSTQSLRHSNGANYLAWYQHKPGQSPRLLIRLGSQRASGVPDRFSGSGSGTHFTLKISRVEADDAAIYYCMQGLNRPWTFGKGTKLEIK
Chain of 5329_C19 (PGT-136) (antibody) (VH): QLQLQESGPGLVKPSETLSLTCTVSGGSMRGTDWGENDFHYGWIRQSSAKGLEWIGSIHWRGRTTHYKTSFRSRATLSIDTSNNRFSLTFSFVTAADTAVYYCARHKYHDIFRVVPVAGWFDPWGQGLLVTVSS
Chain of 5329_C19 (PGT-136) (antibody) (VL): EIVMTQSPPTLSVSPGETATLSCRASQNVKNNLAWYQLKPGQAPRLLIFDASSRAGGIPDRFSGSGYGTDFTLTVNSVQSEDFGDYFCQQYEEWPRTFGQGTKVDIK
Chain of 4993_K13 (PGT-141) (antibody) (VH): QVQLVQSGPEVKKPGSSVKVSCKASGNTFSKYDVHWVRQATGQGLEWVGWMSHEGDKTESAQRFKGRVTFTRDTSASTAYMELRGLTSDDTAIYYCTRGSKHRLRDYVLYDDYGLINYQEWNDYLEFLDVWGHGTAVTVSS
Chain of 4993_K13 (PGT-141) (antibody) (VL): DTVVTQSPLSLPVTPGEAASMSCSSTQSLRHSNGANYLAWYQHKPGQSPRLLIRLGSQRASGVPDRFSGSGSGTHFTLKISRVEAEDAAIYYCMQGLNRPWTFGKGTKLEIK
Chain of 5345_I01 (PGT-137) (antibody) (VH): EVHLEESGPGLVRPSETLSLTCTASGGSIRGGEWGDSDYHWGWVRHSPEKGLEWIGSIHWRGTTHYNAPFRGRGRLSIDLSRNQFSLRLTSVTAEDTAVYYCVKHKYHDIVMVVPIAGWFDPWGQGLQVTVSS
Chain of 5345_I01 (PGT-137) (antibody) (VL): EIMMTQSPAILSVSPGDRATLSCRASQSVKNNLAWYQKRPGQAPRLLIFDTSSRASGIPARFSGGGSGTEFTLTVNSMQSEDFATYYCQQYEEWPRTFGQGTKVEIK
Chain of 4995_P16 (PGT-145) (antibody) (VH): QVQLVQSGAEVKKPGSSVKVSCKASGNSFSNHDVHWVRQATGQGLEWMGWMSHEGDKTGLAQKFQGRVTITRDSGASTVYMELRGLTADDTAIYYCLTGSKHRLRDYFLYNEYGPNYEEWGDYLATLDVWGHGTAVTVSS
Chain of 4995_P16 (PGT-145) (antibody) (VL): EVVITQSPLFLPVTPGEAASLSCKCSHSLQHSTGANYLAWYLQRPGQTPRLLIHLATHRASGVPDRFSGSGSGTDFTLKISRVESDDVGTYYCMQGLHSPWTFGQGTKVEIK
Chain of 4995_E20 (PGT-142) (antibody) (VH): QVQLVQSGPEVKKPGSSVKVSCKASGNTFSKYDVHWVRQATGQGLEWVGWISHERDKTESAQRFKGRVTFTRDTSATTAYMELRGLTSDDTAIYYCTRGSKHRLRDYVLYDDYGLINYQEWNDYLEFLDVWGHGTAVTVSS
Chain of 4980_N08 (PGT-143) (antibody) (VH): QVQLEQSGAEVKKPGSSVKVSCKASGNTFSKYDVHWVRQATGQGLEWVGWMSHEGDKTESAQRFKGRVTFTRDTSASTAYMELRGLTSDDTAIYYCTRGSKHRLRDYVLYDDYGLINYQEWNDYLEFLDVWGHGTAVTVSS
Chain of 4980_N08 (PGT-143) (antibody) (VL): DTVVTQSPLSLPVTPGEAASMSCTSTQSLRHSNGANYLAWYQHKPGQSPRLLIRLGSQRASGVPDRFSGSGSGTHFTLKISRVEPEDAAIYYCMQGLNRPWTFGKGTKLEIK

4995_P16 (PGT-145) (antibody): the IC50 (µg/mL), pseudovirus neutralization is 0.081 µg/mL in [1]; above 50 µg/mL in test [3]; 20.1 µg/mL in [4]; 0.041 µg/mL in test [5]; above 50 µg/mL in test [6]. In test [2], this substance returned an IC50, single-round pseudovirus neutralization above 50 µg/mL. Moreover, the IC50, pseudovirus neutralization in test [7] was above 50 µg/mL; in test [8], 0.337 µg/mL.
On to 4993_K13 (PGT-141) (antibody), for which the IC50 (µg/mL), pseudovirus neutralization in test [1] was 4.69 µg/mL; in [3] it was above 50 µg/mL; in test [4], above 50 µg/mL; in test [5], 20.3 µg/mL; in test [6], above 50 µg/mL. The substance also registered an IC50, single-round pseudovirus neutralization in [2] of 4.02 µg/mL. In addition, the IC50, pseudovirus neutralization in [7] and in test [8] was above 50 µg/mL throughout.
On to 5329_C19 (PGT-136) (antibody), for which the IC50, pseudovirus neutralization in test [9] is above 50 µg/mL; in test [12] it was 3.2 µg/mL; in [13] it was above 50 µg/mL. The IC50 (µg/mL), pseudovirus neutralization in test [10] and in test [11] was above 50 µg/mL in each case.
As to PGT-144 (4970_K22) (antibody), the IC50, pseudovirus neutralization in test [14] was above 50 µg/mL; in test [15], above 50 µg/mL; in test [16], 0.014 µg/mL.
4877_D15 (PGT-122) (antibody): the IC50 (µg/mL), pseudovirus neutralization in test [17] is 0.277 µg/mL; in test [20], above 50 µg/mL. The IC50, pseudovirus neutralization turned out to be 3.79 µg/mL in test [18] and 2.51 µg/mL in test [19].
4858_P08 (PGT-123) (antibody): the results for the IC50 (µg/mL), pseudovirus neutralization in test [17] and in test [20] were 0.075 µg/mL and 19.2 µg/mL, respectively. For the same substance, the IC50, pseudovirus neutralization is 0.495 µg/mL in [18] and 0.705 µg/mL in test [19]. This substance also registered a Fold IC50 increase relative to wild-type (pseudovirus neutralization) in test [21] of 0.5 fold.
As to 1496_C09 (PG9) (TCN-109) (antibody), the IC50 (µg/mL), pseudovirus neutralization in [1] amounted to 1.36 µg/mL; in test [5], 14.6 µg/mL. In addition, the IC50 (µg/ml), pseudovirus neutralization worked out at 4.01 µg/mL in test [22]; 0.79 µg/mL in test [23]; 11.2 µg/mL in test [24]; 0.62 µg/mL in test [26]; 0.1 µg/mL in test [27]; 0.07 µg/mL in test [28]. The IC50 (µg/ml), pseudovirus neutralization in test [29] worked out at 0.4 µg/mL; in [30], 9.71 µg/mL; in test [32] it was 1.37 µg/mL; in test [34] it was 1.19 µg/mL; in test [35] it was 0.01 µg/mL. Moreover, in test [25], the IC50 worked out at 0.06 µg/mL. The IC50, pseudovirus neutralization is 0.06 µg/mL in test [31] and 0.1 µg/mL in test [33].
In the case of 5114_A19 (PGT-128) (antibody), the IC50, pseudovirus neutralization in [9] turned out to be 0.668 µg/mL; in [12], 0.026 µg/mL; in test [13], 0.005 µg/mL. Besides, the IC50 (µg/mL), pseudovirus neutralization was above 50 µg/mL in test [10] and 0.763 µg/mL in [11]. The substance also came in with a Fold IC50 increase relative to wild-type (pseudovirus neutralization) in test [21] of 0.5 fold.
As to 5145_B14 (PGT-127) (antibody), the IC50 (µg/mL), pseudovirus neutralization in [17] and in [20] was above 50 µg/mL throughout. Moreover, the IC50, pseudovirus neutralization is above 50 µg/mL in [18] and 0.017 µg/mL in test [19]. In test [21], this substance gave a Fold IC50 increase relative to wild-type (pseudovirus neutralization) of 3 fold.
As to 5141_B17 (PGT-126) (antibody), the IC50 (µg/mL), pseudovirus neutralization in test [17] and in test [20] was above 50 µg/mL in each case. The IC50, pseudovirus neutralization in [18] is above 50 µg/mL; in test [19], 0.002 µg/mL. In [21], this substance came in with a Fold IC50 increase relative to wild-type (pseudovirus neutralization) of 0.7 fold.
As to 4995_E20 (PGT-142) (antibody), the IC50 (µg/mL), pseudovirus neutralization in test [1] was 8.17 µg/mL; in test [3] it was above 50 µg/mL; in [4] it was above 50 µg/mL; in test [5] it was 5.95 µg/mL; in test [6], above 50 µg/mL. The substance further yielded an IC50, single-round pseudovirus neutralization in test [2] of 1.11 µg/mL. Further, the IC50, pseudovirus neutralization in test [7] and in [8] was above 50 µg/mL each time.
As for PGV04 (antibody), the IC50 (µg/mL), pseudovirus neutralization was 0.019 µg/mL in test [1]; 0.168 µg/mL in [3]; 0.027 µg/mL in test [5]; 2.48 µg/mL in [20]; above 50 µg/mL in [6].
With 5345_I01 (PGT-137) (antibody), the figures for the IC50, pseudovirus neutralization in [9], in test [12] and in test [13] were above 50 µg/mL, 0.23 µg/mL and above 50 µg/mL, respectively. Also, the IC50 (µg/mL), pseudovirus neutralization in [10] and in test [11] was above 50 µg/mL throughout.
As for 5123_A06 (PGT-125) (antibody), the IC50 (µg/mL), pseudovirus neutralization in [17] and in test [20] was above 50 µg/mL each time. Moreover, the IC50, pseudovirus neutralization in [18] is above 50 µg/mL; in test [19], 0.004 µg/mL. The substance also displayed a Fold IC50 increase relative to wild-type (pseudovirus neutralization) in test [21] of 1 fold.
5136_H01 (PGT-131) (antibody): the IC50, pseudovirus neutralization was above 50 µg/mL in test [9], 0.143 µg/mL in test [12] and 0.035 µg/mL in test [13]. Further, the IC50 (µg/mL), pseudovirus neutralization in [10] and in [11] was above 50 µg/mL in each case. In test [21], this substance came in with a Fold IC50 increase relative to wild-type (pseudovirus neutralization) of 1.6 fold.
In the case of 4970_K22 (PGT-144) (antibody), the IC50 (µg/mL), pseudovirus neutralization in [1], in test [3], in [4], in test [5] and in [6] was above 50 µg/mL each time. In test [2], the IC50, single-round pseudovirus neutralization stood at 23 µg/mL. For the same substance, the IC50, pseudovirus neutralization in test [7] and in test [8] was above 50 µg/mL throughout.
In the case of 5147_N06 (PGT-130) (antibody), the IC50, pseudovirus neutralization is above 50 µg/mL in test [9], 0.151 µg/mL in test [12] and 0.308 µg/mL in [13]. Besides, the IC50 (µg/mL), pseudovirus neutralization in test [10] and in [11] was above 50 µg/mL each time. This substance showed a Fold IC50 increase relative to wild-type (pseudovirus neutralization) in test [21] of 0.4 fold.
As for 4980_N08 (PGT-143) (antibody), the IC50 (µg/mL), pseudovirus neutralization is 7.6 µg/mL in test [1]; above 50 µg/mL in test [3]; above 50 µg/mL in test [4]; 4.77 µg/mL in test [5]; above 50 µg/mL in test [6]. Also, the IC50, single-round pseudovirus neutralization in test [2] turned out to be 5.17 µg/mL. Besides, the IC50, pseudovirus neutralization in [7] and in [8] was above 50 µg/mL throughout.
Turning to 5343_B08 (PGT-135) (antibody), the IC50, pseudovirus neutralization was above 50 µg/mL in [9], 0.051 µg/mL in test [12] and above 50 µg/mL in test [13]. The IC50 (µg/mL), pseudovirus neutralization in test [10] and in test [11] was above 50 µg/mL each time. In test [21], the Fold IC50 increase relative to wild-type (pseudovirus neutralization) turned out to be 1.1 fold.
In test [17], 4838_L06 (PGT-121) (antibody) gave an IC50 (µg/mL), pseudovirus neutralization of 0.104 µg/mL. For the same substance, the IC50, pseudovirus neutralization amounted to 0.435 µg/mL in test [18] and 2.44 µg/mL in [19].

The IC50 is the point on the concentration scale where inhibition reaches its midpoint. The low end stands for higher potency, the high end for lower potency.
